Reference: the supplement of paper PMC9112550, “Optimization of the antimicrobial peptide Bac7 by deep mutational scanning” (BMC Biology, 2022)

tested on: Escherichia coli TOP10; experiment: shrunken log2 fold change of peptide-encoding DNA abundance (4.5 h post-induction vs induction); higher = less antimicrobial activity (less host growth inhibition); conditions: time post-induction: 4.5 h; library: site-saturation at positions 5, 18, 19, 20
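Note: peptides expressed intracellularly from a pBAD plasmid library in pooled LB shake-flask culture, induced with 0.3% L-arabinose, DNA abundance read by NGS, three biological replicates, DESeq2 with apeglm shrinkage.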

Point of comparison: RRIRERPPRLPRPRPRPNRGPRP, “shrunken log2 fold change” value -0.00351. Against it:
- RRIRNRPPRLPRPRPRPVNCPRP — within 0.2 log units, -0.147
- RRIRERPPRLPRPRPRPTFDPRP — within 0.2 log units, -0.066
- RRIRIRPPRLPRPRPRPGQSPRP — within 0.2 log units, 0.0669
- RRIRRRPPRLPRPRPRPMAAPRP — higher, 1.15
- RRIRPRPPRLPRPRPRPQNNPRP — lower, -0.812
- RRIRSRPPRLPRPRPRPMRRPRP — higher, 0.732
- RRIRTRPPRLPRPRPRPKIEPRP — within 0.2 log units, -0.00653
- RRIRVRPPRLPRPRPRPVNPPRP — lower, -0.464
- RRIRMRPPRLPRPRPRPWAKPRP — within 0.2 log units, 0.0317
- RRIRLRPPRLPRPRPRPKFYPRP — lower, -0.369
- RRIRHRPPRLPRPRPRPLRIPRP — within 0.2 log units, 0.156
- RRIRTRPPRLPRPRPRPELMPRP — within 0.2 log units, 0.0498
- RRIRARPPRLPRPRPRPDIEPRP — within 0.2 log units, -0.0212
- RRIRARPPRLPRPRPRPTFDPRP — higher, 0.399
- RRIRVRPPRLPRPRPRPMLNPRP — within 0.2 log units, -0.135
- RRIRCRPPRLPRPRPRPEFAPRP — higher, 0.375
- RRIRKRPPRLPRPRPRPYEPPRP — lower, -0.243
- RRIRNRPPRLPRPRPRPMLMPRP — within 0.2 log units, -0.0217
- RRIRFRPPRLPRPRPRPIANPRP — within 0.2 log units, -0.0564
- RRIRKRPPRLPRPRPRPAENPRP — within 0.2 log units, 0.0163
- RRIRYRPPRLPRPRPRPQEEPRP — within 0.2 log units, -0.0969
- RRIRPRPPRLPRPRPRPGRWPRP — higher, 0.551
- RRIRYRPPRLPRPRPRPSMIPRP — lower, -0.77
- RRIRSRPPRLPRPRPRPYFAPRP — lower, -0.645
- RRIRWRPPRLPRPRPRPCNGPRP — within 0.2 log units, -0.0973
- RRIRNRPPRLPRPRPRPYWAPRP — within 0.2 log units, -0.0304
- RRIRARPPRLPRPRPRPDQIPRP — higher, 0.327
- RRIRVRPPRLPRPRPRPSNFPRP — lower, -0.476
- RRIRPRPPRLPRPRPRPRYTPRP — lower, -0.266
- RRIRTRPPRLPRPRPRPIFNPRP — lower, -0.608
- RRIRARPPRLPRPRPRPFRAPRP — within 0.2 log units, 0.0497
- RRIRMRPPRLPRPRPRPNPEPRP — higher, 0.406
- RRIRQRPPRLPRPRPRPETSPRP — within 0.2 log units, -0.192
- RRIRERPPRLPRPRPRPLELPRP — within 0.2 log units, 0.086
- RRIRMRPPRLPRPRPRPAVQPRP — within 0.2 log units, 0.0778
- RRIRSRPPRLPRPRPRPDYEPRP — lower, -0.221
- RRIRMRPPRLPRPRPRPNVKPRP — within 0.2 log units, -0.0702
- RRIRRRPPRLPRPRPRPSRMPRP — within 0.2 log units, 0.0176
- RRIRARPPRLPRPRPRPFICPRP — within 0.2 log units, -0.1
- RRIRVRPPRLPRPRPRPNAKPRP — higher, 0.328
- RRIRYRPPRLPRPRPRPVRWPRP — within 0.2 log units, 0.164
- RRIRGRPPRLPRPRPRPIFGPRP — within 0.2 log units, -0.0743
- RRIRHRPPRLPRPRPRPKARPRP — within 0.2 log units, -0.00317
- RRIRWRPPRLPRPRPRPGKGPRP — within 0.2 log units, -0.0357
- RRIRYRPPRLPRPRPRPTPRPRP — higher, 0.886
- RRIRARPPRLPRPRPRPMHRPRP — within 0.2 log units, -0.137
- RRIRMRPPRLPRPRPRPHIPPRP — lower, -0.289
- RRIRDRPPRLPRPRPRPRGYPRP — within 0.2 log units, 0.03
- RRIRPRPPRLPRPRPRPLDGPRP — within 0.2 log units, 0.0208
- RRIRFRPPRLPRPRPRPFCCPRP — lower, -0.225
- RRIRCRPPRLPRPRPRPIHEPRP — within 0.2 log units, -0.115
- RRIRTRPPRLPRPRPRPGDGPRP — higher, 0.393
- RRIRDRPPRLPRPRPRPEPNPRP — higher, 0.746
- RRIRQRPPRLPRPRPRPMRAPRP — higher, 0.235
- RRIRYRPPRLPRPRPRPERKPRP — within 0.2 log units, -0.109
- RRIRSRPPRLPRPRPRPLHGPRP — within 0.2 log units, 0.0705
- RRIRVRPPRLPRPRPRPSIPPRP — lower, -0.52
- RRIRERPPRLPRPRPRPGTTPRP — lower, -0.433
- RRIRHRPPRLPRPRPRPTSDPRP — lower, -0.302
